This is an account of results in PMC13482807.

This test concerns the target Microtubule star (Mts) L186A (Drosophila) (UniProt P23696). Description: co-IP; S2 cells transfected with the tagged constructs; lysis in 50 mM Tris pH 7.5, 150 mM NaCl, 1% Triton X-100, 10% glycerol, 1 mM EDTA with phosphatase and protease inhibitors; FLAG-tagged proteins on anti-FLAG M2 agarose 1-2 h at 4 °C, eluted with 3x FLAG peptide; immunoblot (Figures EV3G,H, EV5C-E, 5B-D). On the technique in general: A western blot detects proteins with antibodies after separation by electrophoresis.
Sequence of UniProt P23696 (P23696 whole entry L186A): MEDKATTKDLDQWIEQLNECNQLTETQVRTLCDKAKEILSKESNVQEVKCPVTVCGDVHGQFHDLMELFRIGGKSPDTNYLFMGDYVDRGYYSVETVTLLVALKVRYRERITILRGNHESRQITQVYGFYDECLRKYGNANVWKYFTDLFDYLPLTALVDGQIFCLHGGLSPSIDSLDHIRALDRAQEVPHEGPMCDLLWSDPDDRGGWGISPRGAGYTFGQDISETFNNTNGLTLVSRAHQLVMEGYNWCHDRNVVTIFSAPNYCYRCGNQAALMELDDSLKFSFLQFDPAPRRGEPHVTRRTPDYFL

“Connector of kinase to AP-1 (Cka), PP2A B''' regulatory subunit (natural protein)” showed a reduction of binding relative to Mts^WT of 50%.
